To fix the notation:
B1: EEHEE_rd4_0003 (parent)
chain: KKVTINGVEIKFNNPEEAVKFALELAKRLNLRIEFHGDQIKIE

Variants of B1 are the subject of this series. Kind of series: folding stability dG (cDNA display proteolysis); higher = more stable. The conditions noted are these: PBS, room temperature.
In the case of KKVTINGVEIKGNNPEEAVKFALELAKRLNLRIEFHGDQIKIE, the “folding stability dG” value came to 1.55 kcal/mol.

For the variant KKVTINGVEIKNNNPEEAVKFALELAKRLNLRIEFHGDQIKIE, the “folding stability dG” value came out at 1.33 kcal/mol.

Take KKVTINGVEIKYNNPEEAVKFALELAKRLNLRIEFHGDQIKIE: the “folding stability dG” value was determined as 1.89 kcal/mol.

As for KKVTINGVEIKCNNPEEAVKFALELAKRLNLRIEFHGDQIKIE, the “folding stability dG” value was 3.25 kcal/mol.

For the variant KKVTINGVEIKHNNPEEAVKFALELAKRLNLRIEFHGDQIKIE, the “folding stability dG” value is 1.45 kcal/mol.

For the variant KKVTINGVEIKPNNPEEAVKFALELAKRLNLRIEFHGDQIKIE, the “folding stability dG” value was 1.14 kcal/mol.

Take KKVTINGVEIKWNNPEEAVKFALELAKRLNLRIEFHGDQIKIE: the “folding stability dG” value was 2.14 kcal/mol.

KKVTINGVEIKDNNPEEAVKFALELAKRLNLRIEFHGDQIKIE: the “folding stability dG” value worked out at 0.955 kcal/mol.

For KKVTINGVEIKVNNPEEAVKFALELAKRLNLRIEFHGDQIKIE, the “folding stability dG” value was determined as 1.86 kcal/mol.

In the case of KKVTINGVEIKLNNPEEAVKFALELAKRLNLRIEFHGDQIKIE, the “folding stability dG” value came to 1.92 kcal/mol.

Turning to KKVTINGVEIKKNNPEEAVKFALELAKRLNLRIEFHGDQIKIE, the “folding stability dG” value came out at 1.09 kcal/mol.

Consider KKVTINGVEIKANNPEEAVKFALELAKRLNLRIEFHGDQIKIE, for which the “folding stability dG” value worked out at 1.48 kcal/mol.

For the variant KKVTINGVEIKTNNPEEAVKFALELAKRLNLRIEFHGDQIKIE, the “folding stability dG” value was 1.7 kcal/mol.

For KKVTINGVEIKMNNPEEAVKFALELAKRLNLRIEFHGDQIKIE, the “folding stability dG” value was 1.96 kcal/mol.

Consider KKVTINGVEIKENNPEEAVKFALELAKRLNLRIEFHGDQIKIE, for which the “folding stability dG” value stood at 0.907 kcal/mol.

For KKVTINGVEIKRNNPEEAVKFALELAKRLNLRIEFHGDQIKIE, the “folding stability dG” value was determined as 1.41 kcal/mol.

As to KKVTINGVEIKINNPEEAVKFALELAKRLNLRIEFHGDQIKIE, the “folding stability dG” value came out at 1.9 kcal/mol.

KKVTINGVEIKFDNPEEAVKFALELAKRLNLRIEFHGDQIKIE: the “folding stability dG” value is 2.73 kcal/mol.

For the variant KKVTINGVEIKFENPEEAVKFALELAKRLNLRIEFHGDQIKIE, the “folding stability dG” value was 2.59 kcal/mol.

Turning to KKVTINGVEIKFINPEEAVKFALELAKRLNLRIEFHGDQIKIE, the “folding stability dG” value turned out to be 2.59 kcal/mol.

Take KKVTINGVEIKFKNPEEAVKFALELAKRLNLRIEFHGDQIKIE: the “folding stability dG” value worked out at 2.8 kcal/mol.

Take KKVTINGVEIKFFNPEEAVKFALELAKRLNLRIEFHGDQIKIE: the “folding stability dG” value stood at 2.54 kcal/mol.

For the variant KKVTINGVEIKFCNPEEAVKFALELAKRLNLRIEFHGDQIKIE, the “folding stability dG” value is 3.31 kcal/mol.

Regarding KKVTINGVEIKFGNPEEAVKFALELAKRLNLRIEFHGDQIKIE, the “folding stability dG” value worked out at 2.44 kcal/mol.

On to KKVTINGVEIKFLNPEEAVKFALELAKRLNLRIEFHGDQIKIE, for which the “folding stability dG” value was 2.72 kcal/mol.

Turning to KKVTINGVEIKFHNPEEAVKFALELAKRLNLRIEFHGDQIKIE, the “folding stability dG” value came out at 2.45 kcal/mol.

For KKVTINGVEIKFANPEEAVKFALELAKRLNLRIEFHGDQIKIE, the “folding stability dG” value was 2.8 kcal/mol.

For the variant KKVTINGVEHKFNNPEEAVKFALELAKRLNLRIEFHGDQIKIE, the “folding stability dG” value came out at 2.49 kcal/mol.

Regarding KKVTINGVEGKFNNPEEAVKFALELAKRLNLRIEFHGDQIKIE, the “folding stability dG” value is 1.21 kcal/mol.

KKVTINGVEPKFNNPEEAVKFALELAKRLNLRIEFHGDQIKIE: the “folding stability dG” value stood at 1.19 kcal/mol.

In the case of KKVTINGVECKFNNPEEAVKFALELAKRLNLRIEFHGDQIKIE, the “folding stability dG” value is 3.45 kcal/mol.

As to KKVTINGVETKFNNPEEAVKFALELAKRLNLRIEFHGDQIKIE, the “folding stability dG” value is 1.78 kcal/mol.

For KKVTINGVEYKFNNPEEAVKFALELAKRLNLRIEFHGDQIKIE, the “folding stability dG” value turned out to be 2.99 kcal/mol.

Consider KKVTINGVEAKFNNPEEAVKFALELAKRLNLRIEFHGDQIKIE, for which the “folding stability dG” value was 1.65 kcal/mol.

Take KKVTINGVEWKFNNPEEAVKFALELAKRLNLRIEFHGDQIKIE: the “folding stability dG” value came out at 2.55 kcal/mol.

As to KKVTINGVERKFNNPEEAVKFALELAKRLNLRIEFHGDQIKIE, the “folding stability dG” value came out at 1.88 kcal/mol.

As to KKVTINGVEVKFNNPEEAVKFALELAKRLNLRIEFHGDQIKIE, the “folding stability dG” value came to 2.22 kcal/mol.

In the case of KKVTINGVEFKFNNPEEAVKFALELAKRLNLRIEFHGDQIKIE, the “folding stability dG” value amounted to 2.89 kcal/mol.

On to KKVTINGVELKFNNPEEAVKFALELAKRLNLRIEFHGDQIKIE, for which the “folding stability dG” value was found to be 2.6 kcal/mol.

As for KKVTINGVEEKFNNPEEAVKFALELAKRLNLRIEFHGDQIKIE, the “folding stability dG” value is 1.36 kcal/mol.

Regarding KKVTINGVESKFNNPEEAVKFALELAKRLNLRIEFHGDQIKIE, the “folding stability dG” value worked out at 1.6 kcal/mol.

As for KKVTINGVENKFNNPEEAVKFALELAKRLNLRIEFHGDQIKIE, the “folding stability dG” value was 1.5 kcal/mol.

For KKVTINGVEKKFNNPEEAVKFALELAKRLNLRIEFHGDQIKIE, the “folding stability dG” value amounted to 1.83 kcal/mol.

For the variant KKVTINGVEQKFNNPEEAVKFALELAKRLNLRIEFHGDQIKIE, the “folding stability dG” value amounted to 1.65 kcal/mol.

Turning to KKVTINGVEMKFNNPEEAVKFALELAKRLNLRIEFHGDQIKIE, the “folding stability dG” value worked out at 2.36 kcal/mol.

With KKVTINGVEDKFNNPEEAVKFALELAKRLNLRIEFHGDQIKIE, the “folding stability dG” value was 1.28 kcal/mol.

As for KKVTINNVEIKFNNPEEAVKFALELAKRLNLRIEFHGDQIKIE, the “folding stability dG” value was determined as 2.11 kcal/mol.

On to KKVTINMVEIKFNNPEEAVKFALELAKRLNLRIEFHGDQIKIE, for which the “folding stability dG” value is 2.2 kcal/mol.

Regarding KKVTINYVEIKFNNPEEAVKFALELAKRLNLRIEFHGDQIKIE, the “folding stability dG” value was found to be 2.23 kcal/mol.

In the case of KKVTINWVEIKFNNPEEAVKFALELAKRLNLRIEFHGDQIKIE, the “folding stability dG” value is 2.54 kcal/mol.

Consider KKVTINQVEIKFNNPEEAVKFALELAKRLNLRIEFHGDQIKIE, for which the “folding stability dG” value worked out at 1.96 kcal/mol.

Turning to KKVTINLVEIKFNNPEEAVKFALELAKRLNLRIEFHGDQIKIE, the “folding stability dG” value worked out at 2.42 kcal/mol.

On to KKVTINSVEIKFNNPEEAVKFALELAKRLNLRIEFHGDQIKIE, for which the “folding stability dG” value worked out at 1.85 kcal/mol.

Regarding KKVTINKVEIKFNNPEEAVKFALELAKRLNLRIEFHGDQIKIE, the “folding stability dG” value is 2.09 kcal/mol.

Turning to KKVTINPVEIKFNNPEEAVKFALELAKRLNLRIEFHGDQIKIE, the “folding stability dG” value came to 2.01 kcal/mol.

With KKVTINIVEIKFNNPEEAVKFALELAKRLNLRIEFHGDQIKIE, the “folding stability dG” value turned out to be 2.84 kcal/mol.

KKVTINVVEIKFNNPEEAVKFALELAKRLNLRIEFHGDQIKIE: the “folding stability dG” value was determined as 2.45 kcal/mol.

For KKVTINRVEIKFNNPEEAVKFALELAKRLNLRIEFHGDQIKIE, the “folding stability dG” value was 1.87 kcal/mol.

With KKVTINTVEIKFNNPEEAVKFALELAKRLNLRIEFHGDQIKIE, the “folding stability dG” value amounted to 1.98 kcal/mol.

For the origin of these results see the MegaScale stability set (Tsuboyama et al. 2023).
